Measured values from PMC2542476.

Biological target: CFP-Cav1 (human caveolin-1 with CFP at its N terminus) (human) (UniProt Q03135)
Experiment: FRET or BRET

Sequence of UniProt Q03135 (Q03135 whole entry): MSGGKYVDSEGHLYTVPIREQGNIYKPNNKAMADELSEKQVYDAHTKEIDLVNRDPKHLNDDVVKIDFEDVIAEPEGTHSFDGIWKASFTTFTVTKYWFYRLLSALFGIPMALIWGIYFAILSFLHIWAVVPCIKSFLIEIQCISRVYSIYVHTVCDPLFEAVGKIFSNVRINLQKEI

- FRET efficiency: 15%
Substance: YFP-tagged rat Na/K-ATPase α1 pump-null mutant D371N (natural protein)
